Data: PMC9482650, “Quantitative fragmentomics allow affinity mapping of interactomes” (Nature Communications, 2022)

Experiments:
Test in all cases: holdup assay
Set-up in all cases: key: below the threshold = too weak to quantify, mostly under pKd 3.1 to 4
Details in all cases: plain residues with an end cap or a label only (N-terminal biotin on a linker: ado-ado)
SNTG1, Q9NSN8 = biological target: T1, SNTG1, Q9NSN8
T1 sequence (Q9NSN8 52-150, limits assumed, looked up): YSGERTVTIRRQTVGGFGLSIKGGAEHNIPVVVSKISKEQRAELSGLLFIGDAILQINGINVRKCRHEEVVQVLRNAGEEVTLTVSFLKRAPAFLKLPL

PTPN3, P26045 = biological target: PTPN3, P26045
Chain of PTPN3, P26045 (P26045 505-587): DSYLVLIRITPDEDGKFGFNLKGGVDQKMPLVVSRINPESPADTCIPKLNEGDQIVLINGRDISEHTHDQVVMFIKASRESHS

SNTA1, Q13424 = biological target: T2, SNTA1, Q13424
T2 sequence (Q13424 82-180, limits assumed, looked up): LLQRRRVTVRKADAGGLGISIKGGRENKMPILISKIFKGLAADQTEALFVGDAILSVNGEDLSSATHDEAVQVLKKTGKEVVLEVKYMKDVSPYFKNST

Inadl_5, Q8NI35 = biological target: Inadl_5, Q8NI35
Chain of Inadl_5, Q8NI35 (Q8NI35 673-780): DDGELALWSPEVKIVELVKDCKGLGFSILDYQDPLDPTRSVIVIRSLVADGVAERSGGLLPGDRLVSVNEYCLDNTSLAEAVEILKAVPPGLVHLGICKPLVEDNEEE

GRIP2_4, Q9C0E4 = biological target: GRIP2_4, Q9C0E4
Chain of GRIP2_4, Q9C0E4 (Q9C0E4 446-548): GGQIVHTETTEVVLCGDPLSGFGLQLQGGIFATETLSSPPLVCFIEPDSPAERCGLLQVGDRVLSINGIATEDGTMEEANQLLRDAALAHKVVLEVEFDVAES

HTRA4, P83105 = biological target: T3, HTRA4, P83105
T3 sequence (P83105 378-476, limits assumed, looked up): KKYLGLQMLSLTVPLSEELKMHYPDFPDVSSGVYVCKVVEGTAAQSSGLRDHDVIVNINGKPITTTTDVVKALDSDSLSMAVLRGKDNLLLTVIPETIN

HTRA1, Q92743 = biological target: HTRA1, Q92743
Chain of HTRA1, Q92743 (Q92743 360-477): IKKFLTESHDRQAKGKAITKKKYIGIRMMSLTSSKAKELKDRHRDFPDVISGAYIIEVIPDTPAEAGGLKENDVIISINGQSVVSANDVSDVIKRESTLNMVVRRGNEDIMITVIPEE

SIPA1L2, Q9P2F8 = biological target: T4, SIPA1L2, Q9P2F8
T4 sequence (Q9P2F8 945-1036, limits assumed, looked up): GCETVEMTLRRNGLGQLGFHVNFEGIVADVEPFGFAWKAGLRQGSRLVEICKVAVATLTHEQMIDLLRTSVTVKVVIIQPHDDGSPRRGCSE

MAGI2_3, Q86UL8 = biological target: MAGI2_3, Q86UL8
Chain of MAGI2_3, Q86UL8 (Q86UL8 600-682): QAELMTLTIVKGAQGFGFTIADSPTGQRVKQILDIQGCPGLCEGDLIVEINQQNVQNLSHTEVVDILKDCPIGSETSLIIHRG

LNX1_3, Q8TBB1 = biological target: LNX1_3, Q8TBB1
Chain of LNX1_3, Q8TBB1 (Q8TBB1 500-596): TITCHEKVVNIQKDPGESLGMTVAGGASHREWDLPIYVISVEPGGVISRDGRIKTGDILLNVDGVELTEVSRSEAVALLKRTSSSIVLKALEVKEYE

PDZD2_2, O15018 = biological target: T5, PDZD2_2, O15018
T5 sequence (O15018 329-429, limits assumed, looked up): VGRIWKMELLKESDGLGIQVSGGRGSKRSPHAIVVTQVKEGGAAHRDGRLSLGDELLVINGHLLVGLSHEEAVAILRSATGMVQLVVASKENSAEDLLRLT

NHERF3_4, Q5T2W1 = biological target: T6, NHERF3_4, Q5T2W1
T6 sequence (Q5T2W1 373-468, limits assumed, looked up): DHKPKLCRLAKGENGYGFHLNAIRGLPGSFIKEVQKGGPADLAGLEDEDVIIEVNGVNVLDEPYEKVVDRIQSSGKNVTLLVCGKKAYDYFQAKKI

Inadl_6, Q8NI35 = biological target: Inadl_6, Q8NI35
Chain of Inadl_6, Q8NI35 (Q8NI35 1058-1167): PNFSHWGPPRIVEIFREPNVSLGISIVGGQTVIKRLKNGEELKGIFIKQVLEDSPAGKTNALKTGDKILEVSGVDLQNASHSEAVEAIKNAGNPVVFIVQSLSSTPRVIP

SCRIB_2, Q14160 = biological target: SCRIB_2, Q14160
Chain of SCRIB_2, Q14160 (Q14160 857-960): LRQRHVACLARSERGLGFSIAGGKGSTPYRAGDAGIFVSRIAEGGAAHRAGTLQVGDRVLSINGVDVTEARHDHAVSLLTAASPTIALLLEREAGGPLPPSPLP

DLG1_3, Q12959 = biological target: DLG1_3, Q12959
Chain of DLG1_3, Q12959 (Q12959 457-571): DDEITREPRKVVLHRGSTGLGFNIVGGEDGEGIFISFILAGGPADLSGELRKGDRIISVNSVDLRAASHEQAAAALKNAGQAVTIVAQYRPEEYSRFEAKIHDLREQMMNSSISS

LDB3, O75112 = biological target: LDB3, O75112
Chain of LDB3, O75112 (O75112 1-94): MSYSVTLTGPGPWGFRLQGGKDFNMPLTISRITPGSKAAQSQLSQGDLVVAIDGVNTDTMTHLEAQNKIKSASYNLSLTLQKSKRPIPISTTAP

MAGI2_4, Q86UL8 = biological target: MAGI2_4, Q86UL8
Chain of MAGI2_4, Q86UL8 (Q86UL8 772-865): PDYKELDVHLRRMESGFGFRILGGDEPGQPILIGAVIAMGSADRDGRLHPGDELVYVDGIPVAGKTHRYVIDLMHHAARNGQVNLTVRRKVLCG

PICK1, Q9NRD5 = biological target: PICK1, Q9NRD5
Chain of PICK1, Q9NRD5 (Q9NRD5 17-115): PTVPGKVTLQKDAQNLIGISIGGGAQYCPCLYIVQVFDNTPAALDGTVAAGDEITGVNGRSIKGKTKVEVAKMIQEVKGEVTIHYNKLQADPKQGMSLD

ARHGEF12, Q9NZN5-2 = biological target: ARHGEF12, Q9NZN5-2
Chain of ARHGEF12, Q9NZN5-2 (Q9NZN5 other isoform, or with tags, fused parts or gaps): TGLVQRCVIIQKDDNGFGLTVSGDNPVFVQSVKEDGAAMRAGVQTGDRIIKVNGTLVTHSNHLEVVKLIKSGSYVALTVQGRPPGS

NHERF4_2, Q86UT5 = biological target: NHERF4_2, Q86UT5
Chain of NHERF4_2, Q86UT5 (Q86UT5 220-308): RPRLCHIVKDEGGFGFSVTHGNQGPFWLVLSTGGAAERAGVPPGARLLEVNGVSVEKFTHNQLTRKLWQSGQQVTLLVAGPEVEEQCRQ

GRIP1_2, Q9Y3R0 = biological target: T7, GRIP1_2, Q9Y3R0
T7 sequence (Q9Y3R0 145-248, limits assumed, looked up): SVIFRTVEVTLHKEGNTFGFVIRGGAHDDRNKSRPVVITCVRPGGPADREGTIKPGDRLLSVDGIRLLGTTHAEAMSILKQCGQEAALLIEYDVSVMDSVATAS

CARD11, Q9BXL7 = biological target: T8, CARD11, Q9BXL7
T8 sequence (Q9BXL7 662-765, limits assumed, looked up): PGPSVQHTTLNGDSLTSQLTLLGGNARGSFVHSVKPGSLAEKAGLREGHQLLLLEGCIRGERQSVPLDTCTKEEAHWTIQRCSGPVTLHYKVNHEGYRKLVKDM

MAGI2_5, Q86UL8 = biological target: MAGI2_5, Q86UL8
Chain of MAGI2_5, Q86UL8 (Q86UL8 915-1017): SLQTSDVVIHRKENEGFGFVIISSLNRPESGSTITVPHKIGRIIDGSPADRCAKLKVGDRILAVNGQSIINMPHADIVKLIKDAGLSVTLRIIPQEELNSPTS

GIPC2, Q8TF65 = biological target: GIPC2, Q8TF65
Chain of GIPC2, Q8TF65 (Q8TF65 112-203): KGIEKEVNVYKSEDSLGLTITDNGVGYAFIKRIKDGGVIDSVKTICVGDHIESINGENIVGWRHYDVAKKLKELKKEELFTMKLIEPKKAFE

NHERF3_3, Q5T2W1 = biological target: T9, NHERF3_3, Q5T2W1
T9 sequence (Q5T2W1 238-333, limits assumed, looked up): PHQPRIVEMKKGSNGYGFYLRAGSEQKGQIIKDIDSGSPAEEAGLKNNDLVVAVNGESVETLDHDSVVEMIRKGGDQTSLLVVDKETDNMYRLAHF

TJP3_3, O95049 = biological target: T10, TJP3_3, O95049
T10 sequence (O95049 375-456, limits assumed, looked up): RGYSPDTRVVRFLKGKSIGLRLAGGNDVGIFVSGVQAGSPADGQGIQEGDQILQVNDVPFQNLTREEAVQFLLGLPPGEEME

FRMPD1, Q5SYB0 = biological target: T11, FRMPD1, Q5SYB0
T11 sequence (Q5SYB0 52-145, limits assumed, looked up): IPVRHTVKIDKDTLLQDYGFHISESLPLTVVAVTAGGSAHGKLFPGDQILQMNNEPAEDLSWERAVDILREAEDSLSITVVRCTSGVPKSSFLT

Binder | pKd (SNTG1, Q9NSN8) | pKd (PTPN3, P26045) | pKd (SNTA1, Q13424) | pKd (Inadl_5, Q8NI35) | pKd (GRIP2_4, Q9C0E4) | pKd (HTRA4, P83105) | pKd (HTRA1, Q92743) | pKd (SIPA1L2, Q9P2F8) | pKd (MAGI2_3, Q86UL8) | pKd (LNX1_3, Q8TBB1) | pKd (PDZD2_2, O15018) | pKd (NHERF3_4, Q5T2W1) | pKd (Inadl_6, Q8NI35) | pKd (SCRIB_2, Q14160) | pKd (DLG1_3, Q12959) | pKd (LDB3, O75112) | pKd (MAGI2_4, Q86UL8) | pKd (PICK1, Q9NRD5) | pKd (ARHGEF12, Q9NZN5-2) | pKd (NHERF4_2, Q86UT5) | also measured
VRNLPESEEL [MYOZ3, Q8TDC0] | below the threshold | 3.91 | 3.57 | below the threshold | below the threshold | 3.94 | 3.84 | below the threshold | below the threshold | below the threshold | below the threshold | below the threshold | below the threshold | below the threshold | below the threshold | 5.19 | below the threshold | 4.05 | below the threshold | below the threshold | pKd (GRIP1_2, Q9Y3R0): below the threshold; pKd (CARD11, Q9BXL7): below the threshold; pKd (MAGI2_5, Q86UL8): below the threshold; pKd (GIPC2, Q8TF65): below the threshold; pKd (NHERF3_3, Q5T2W1): below the threshold; pKd (TJP3_3, O95049): below the threshold; pKd (FRMPD1, Q5SYB0): below the threshold
GNSVLKSTQF [SLC22A12, Q96S37] | below the threshold | 4.59 | below the threshold | below the threshold | below the threshold | below the threshold | below the threshold | below the threshold | 3.61 | below the threshold | below the threshold | 5.45 | below the threshold | below the threshold | below the threshold | below the threshold | 3.79 | 4.02 | below the threshold | below the threshold | pKd (GRIP1_2, Q9Y3R0): below the threshold; pKd (CARD11, Q9BXL7): below the threshold; pKd (MAGI2_5, Q86UL8): 4.3; pKd (GIPC2, Q8TF65): below the threshold; pKd (NHERF3_3, Q5T2W1): below the threshold; pKd (TJP3_3, O95049): below the threshold; pKd (FRMPD1, Q5SYB0): below the threshold
RHGSCVETSL [TMEM151B, Q8IW70] | 4.45 | 5 | 4.82 | below the threshold | below the threshold | below the threshold | 3.86 | below the threshold | 3.5 | below the threshold | 3.56 | 3.95 | 4.31 | 4.43 | 4.1 | below the threshold | below the threshold | 4.18 | 5.07 | below the threshold | pKd (GRIP1_2, Q9Y3R0): below the threshold; pKd (CARD11, Q9BXL7): below the threshold; pKd (MAGI2_5, Q86UL8): 4.22; pKd (GIPC2, Q8TF65): 3.92; pKd (NHERF3_3, Q5T2W1): below the threshold; pKd (TJP3_3, O95049): below the threshold; pKd (FRMPD1, Q5SYB0): below the threshold
QSLNRMEYIV [JAG1, P78504] | below the threshold | below the threshold | below the threshold | 4.86 | below the threshold | below the threshold | 5.37 | below the threshold | below the threshold | 3.96 | below the threshold | below the threshold | below the threshold | below the threshold | below the threshold | below the threshold | 3.87 | below the threshold | below the threshold | below the threshold | pKd (GRIP1_2, Q9Y3R0): below the threshold; pKd (CARD11, Q9BXL7): below the threshold; pKd (MAGI2_5, Q86UL8): below the threshold; pKd (GIPC2, Q8TF65): below the threshold; pKd (NHERF3_3, Q5T2W1): below the threshold; pKd (TJP3_3, O95049): below the threshold; pKd (FRMPD1, Q5SYB0): below the threshold
LPHGHSTTRV [NLGN4X, Q8N0W4] | below the threshold | 4.36 | 4.05 | below the threshold | below the threshold | 4.04 | 3.72 | below the threshold | 4.1 | below the threshold | 3.53 | 3.85 | below the threshold | below the threshold | 4.24 | below the threshold | 3.91 | 4.27 | 3.98 | below the threshold | pKd (GRIP1_2, Q9Y3R0): below the threshold; pKd (CARD11, Q9BXL7): below the threshold; pKd (MAGI2_5, Q86UL8): below the threshold; pKd (GIPC2, Q8TF65): below the threshold; pKd (NHERF3_3, Q5T2W1): below the threshold; pKd (TJP3_3, O95049): below the threshold; pKd (FRMPD1, Q5SYB0): below the threshold
